Assay results: paper PMC12147903

Key:
[1] = molecular target: E3 ubiquitin ligase zinc RING finger 3 (Znrf3) (mouse (endogenous in MIN6)) (UniProt Q5SSZ7)
[2] = molecular target: T1, leucine-rich repeat-containing G-protein coupled receptor 4 (Lgr4) (mouse (endogenous in MIN6)) (UniProt A2ARI4)
T1 sequence: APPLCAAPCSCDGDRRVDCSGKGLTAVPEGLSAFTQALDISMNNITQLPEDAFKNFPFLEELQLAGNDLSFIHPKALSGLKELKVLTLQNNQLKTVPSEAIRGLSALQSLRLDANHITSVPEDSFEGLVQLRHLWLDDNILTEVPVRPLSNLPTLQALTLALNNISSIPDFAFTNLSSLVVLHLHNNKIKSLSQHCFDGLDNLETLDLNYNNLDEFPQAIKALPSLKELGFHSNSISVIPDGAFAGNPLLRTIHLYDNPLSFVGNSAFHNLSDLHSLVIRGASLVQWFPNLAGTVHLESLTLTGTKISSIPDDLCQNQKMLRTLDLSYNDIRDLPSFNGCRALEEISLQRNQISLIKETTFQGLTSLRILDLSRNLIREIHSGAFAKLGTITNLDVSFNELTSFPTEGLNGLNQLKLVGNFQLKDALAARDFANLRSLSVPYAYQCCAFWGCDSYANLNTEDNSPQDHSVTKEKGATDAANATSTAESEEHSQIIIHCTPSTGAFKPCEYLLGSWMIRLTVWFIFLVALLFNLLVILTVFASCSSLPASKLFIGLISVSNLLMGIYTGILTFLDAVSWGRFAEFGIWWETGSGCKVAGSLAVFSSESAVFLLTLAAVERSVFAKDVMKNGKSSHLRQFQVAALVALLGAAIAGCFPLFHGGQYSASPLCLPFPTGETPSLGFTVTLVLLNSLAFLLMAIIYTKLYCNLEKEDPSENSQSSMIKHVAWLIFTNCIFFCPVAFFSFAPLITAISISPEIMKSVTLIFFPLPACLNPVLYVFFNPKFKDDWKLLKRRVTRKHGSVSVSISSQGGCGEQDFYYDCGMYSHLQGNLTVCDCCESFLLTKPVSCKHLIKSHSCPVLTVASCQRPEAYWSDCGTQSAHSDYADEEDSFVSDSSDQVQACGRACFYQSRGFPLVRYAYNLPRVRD

Sequence of human RSPO1 (Q2MKA7 21-263): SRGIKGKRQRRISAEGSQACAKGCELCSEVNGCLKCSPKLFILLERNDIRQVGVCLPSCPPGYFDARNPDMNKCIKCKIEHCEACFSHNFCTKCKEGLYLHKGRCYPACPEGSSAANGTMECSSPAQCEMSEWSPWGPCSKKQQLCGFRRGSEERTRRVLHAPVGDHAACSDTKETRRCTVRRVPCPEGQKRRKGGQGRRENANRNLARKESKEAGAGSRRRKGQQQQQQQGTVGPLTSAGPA
Sequence of UniProt Q5SSZ7 (Q5SSZ7 53-913): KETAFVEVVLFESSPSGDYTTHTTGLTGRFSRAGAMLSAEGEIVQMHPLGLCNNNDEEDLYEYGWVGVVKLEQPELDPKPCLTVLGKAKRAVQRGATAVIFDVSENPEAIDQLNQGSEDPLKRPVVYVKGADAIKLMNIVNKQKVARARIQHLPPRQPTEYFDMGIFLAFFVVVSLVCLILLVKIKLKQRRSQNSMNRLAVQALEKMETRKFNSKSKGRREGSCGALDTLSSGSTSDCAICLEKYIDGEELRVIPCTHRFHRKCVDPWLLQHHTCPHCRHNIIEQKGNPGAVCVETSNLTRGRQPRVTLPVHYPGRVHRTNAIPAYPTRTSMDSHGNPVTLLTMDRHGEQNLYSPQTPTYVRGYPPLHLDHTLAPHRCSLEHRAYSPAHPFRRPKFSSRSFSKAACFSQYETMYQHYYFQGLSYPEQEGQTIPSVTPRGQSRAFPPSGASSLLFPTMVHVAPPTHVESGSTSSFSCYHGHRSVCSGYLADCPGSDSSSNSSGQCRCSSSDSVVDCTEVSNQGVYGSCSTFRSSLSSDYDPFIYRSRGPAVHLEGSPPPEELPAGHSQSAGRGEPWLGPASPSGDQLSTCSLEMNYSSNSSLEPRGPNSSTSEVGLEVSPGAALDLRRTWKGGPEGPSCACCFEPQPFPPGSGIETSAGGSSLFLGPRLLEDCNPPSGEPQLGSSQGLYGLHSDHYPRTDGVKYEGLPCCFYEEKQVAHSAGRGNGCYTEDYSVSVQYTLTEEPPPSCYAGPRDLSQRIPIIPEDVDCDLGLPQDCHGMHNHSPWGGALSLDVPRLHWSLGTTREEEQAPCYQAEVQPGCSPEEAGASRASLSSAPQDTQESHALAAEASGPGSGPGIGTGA

MIN6 cell number after 24 h of incubation with increasing doses of human RSPO1, against controls [1]: 2.08 fold
MIN6 cell number after 24 h of incubation with increasing doses of human RSPO1, against controls [2]: 2.08 fold
Substance: human RSPO1 (from UniProt Q2MKA7 21-263) (ligand)
